# Measurements as given in publication PMC7489894 (Biochemical Journal, 2020).
# Where no end group is shown, it is not given here.
# T1: human Bcl-w (residues 9-152) (human, UniProt Q92843 9-152)
# T1 sequence (looked up): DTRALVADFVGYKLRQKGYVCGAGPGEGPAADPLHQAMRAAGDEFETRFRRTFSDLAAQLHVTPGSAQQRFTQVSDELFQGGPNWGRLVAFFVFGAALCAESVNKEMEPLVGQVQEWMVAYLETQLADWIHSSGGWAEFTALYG
# T2: human A1/Bfl-1 (residues 1-151) (human, UniProt Q16548 1-151)
# T2 sequence (looked up): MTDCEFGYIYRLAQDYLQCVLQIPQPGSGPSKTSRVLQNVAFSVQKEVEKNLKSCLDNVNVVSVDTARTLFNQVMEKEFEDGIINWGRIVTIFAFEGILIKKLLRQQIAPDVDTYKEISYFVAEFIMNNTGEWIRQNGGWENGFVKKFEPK
# B1: HyBax BH3 motif peptide (peptide)
# peptide: SRNGTVNKEVAHCLKRIGDDLVNNHQLN
# B2: HyBak1 BH3 motif peptide (peptide)
# peptide: SNGETENLGRVLASFGDEINDKYRQV
# B3: HyBH3-only-2 BH3 motif peptide (peptide)
# peptide: SMRRLRAIGACLRAIGDDIQSRSEKS
# Key:
# HyBcl-2-4 = assay: ITC binding of BH3 motif peptides to HyBcl-2-4; set-up: species or system Hydra vulgaris; settings: read-out: KD (dissociation constant), HyBcl-2-4, MicroCal iTC200, 25°C, tag-free HyBcl-2-4 lacking 30 C-terminal residues, 25 mM Hepes pH 7.5, 150 mM NaCl, means of 3 experiments ± SD, NB: no binding detected
# [1] = molecular target: HyBcl-2-4 lacking 30 C-terminal residues (fusion tag-free) (Hydra vulgaris); assay: ITC
# [2] = molecular target: human Bcl-2 (residues 10-203) (human, UniProt P10415 10-203); assay: ITC
# [3] = molecular target: human Bcl-xL (residues 1-209 Δloop45-84) (human, UniProt Q07817-1 1-209, Δloop45-84); assay: ITC
# [4] = molecular target: T1, human Bcl-w (residues 9-152); assay: ITC
# [5] = molecular target: human Mcl-1 (residues 171-320) (human, UniProt Q07820 171-320); assay: ITC
# [6] = molecular target: T2, human A1/Bfl-1 (residues 1-151); assay: ITC
# Sequence of human Mcl-1 (residues 171-320) (Q07820 171-320): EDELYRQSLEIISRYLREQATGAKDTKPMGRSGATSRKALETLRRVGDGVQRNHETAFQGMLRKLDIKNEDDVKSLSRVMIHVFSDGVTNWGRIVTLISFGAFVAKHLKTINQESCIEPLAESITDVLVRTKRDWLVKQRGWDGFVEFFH
# Sequence of human Bcl-2 (residues 10-203) (P10415 10-203): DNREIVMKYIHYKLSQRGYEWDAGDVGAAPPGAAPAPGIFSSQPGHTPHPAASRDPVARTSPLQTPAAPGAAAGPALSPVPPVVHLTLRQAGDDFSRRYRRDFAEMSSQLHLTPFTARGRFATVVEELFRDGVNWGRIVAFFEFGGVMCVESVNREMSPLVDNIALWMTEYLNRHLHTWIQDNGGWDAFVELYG
Molecule,Kd (HyBcl-2-4),Kd [1],binding result [2],binding result [3],binding result [4],Kd [5],binding result [6]
SMRRLRAIGACLRAIGDDIQSRSEKS [HyBH3-only],0.149 µM,–,–,–,–,–,–
B1,–,2.29 µM,binds,binds,binds,0.041 µM,binds
B2,–,–,binds,binds,binds,0.067 µM,binds
B3,–,0.149 µM,binds,binds,binds,0.05 µM,binds
